Columns and labels:
CD2 (human) = CD2 (human) (UniProt P06729)
[1] = molecular target: surface Spycatcher fused to the hinge of hCD52 (human); experiment: flow cytometry on cells; titration of purified Spytag-mClover3 on CHO-K1 cells transduced with surface Spycatcher; covalent coupling read by mClover3 fluorescence

UniProt P06729, sequence (P06729 25-351): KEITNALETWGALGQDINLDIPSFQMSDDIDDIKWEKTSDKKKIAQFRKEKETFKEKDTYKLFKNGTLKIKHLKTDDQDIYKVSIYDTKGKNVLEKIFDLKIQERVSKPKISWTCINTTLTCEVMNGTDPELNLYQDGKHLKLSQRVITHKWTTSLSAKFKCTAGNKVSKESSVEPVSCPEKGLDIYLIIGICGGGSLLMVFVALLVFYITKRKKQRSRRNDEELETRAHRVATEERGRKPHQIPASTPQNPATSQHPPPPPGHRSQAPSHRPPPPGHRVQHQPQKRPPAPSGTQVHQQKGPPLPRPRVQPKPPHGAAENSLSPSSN

fold improvement of antigen sensitivity, 4-1BB, 1G4 TCR T cells, with the CD2 ligand against pMHC alone (CD2 (human)) [fold]	fold improvement of antigen sensitivity, 4-1BB, D52N CAR T cells, with the CD2 ligand against pMHC alone (CD2 (human)) [fold]	fold improvement of antigen sensitivity, IL-2, 1G4 TCR T cells, with the CD2 ligand against pMHC alone (CD2 (human)) [fold]	fold improvement of antigen sensitivity, IL-2, D52N CAR T cells, with the CD2 ligand against pMHC alone (CD2 (human)) [fold]	Substance	concentration at saturation [1] [µM]
230	11	46	3.9	full extracellular domain of CD58 fused to a C-terminal Spytag and Histag (from UniProt P19256 29-215) (ligand)	–
–	–	–	–	purified mClover3 fused to Spytag	1

From paper PMC10897201
